Measurements as given in a protein production outcome set (Wang et al. 2014).

assay: label from the status in PepcDB records
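Note: failed if final PepcDB status was selected cloned or expressed and not failed if soluble or beyond.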

| Sequence | protein production |
| --- | --- |
| MVSPKKLTPAMEQVKTFKEKYPDCILFMRMGDFYETFFEDAEICARELDIVQTSRSKDPEGNPIPLAGIPYHAVDLYLPRMIRKGYKVAVCEQVEDPKLAKGVVKRDVVRVVTPGTAIDADVIPGPTARYLMALCSDAKKTVMGLAFLDISTGEFFVREIPFEPGFSALATEIEQYNPLEILVPQGISADLISFLASTCKVLTPGRSGLFVDGTAELTAAFCVSSLDGFDVSSAECINAAAAALRYAKETQKTSLPHIRGFSRKYANDAMILDAITLRNLEILNPLRGDRNDTTLFGFLNRTKTPMGSRVLRSTITRPLTSPEKINHRLDAVGFFTRRPVLLSGTRTILSRFTDIERIAGRIAYGNASPRDLLALASSLAAVPELTAELCGAEGLLKDELEQIPSFDGVADLILSAIVDEPPLVYKNGGVIREGYSSDLDQIRNIVTNGRDWIAELQQTERERTGIRSLKIAYNNVFGYYIEITKANLHLVPDTYERKQTTANGERFTIPALREREAVMAQADDRVLALEISLFESLLTHLSEFVPALQQASRSIGTIDMIAAFADLSLSGNYVRPELVPGTELLIRDGRHPIVENTVPGGYVPNDTEMSSIGQQILILTGANMAGKSTYMRSVALICIMAQTGCFVPASFARIGIVDRVFTRVGASDDLAGGQSTFMVEMLELANILNNATDQSLILLDEIGRGTSTVDGYAIARAVLEYLHGKGGAGPRTLFATHFHQLIGMESELRRVRNYHFAVKEDQHDITFLRKLIPGATDRSYGIHVAKIAGVPKKVLVRASDLLREALTQDASSGGTKYYTQMLLTDAEPAPSAVEERIRDADPNMMTPMQALMFINELKALLEKK | failed |
| MVSRLVLGCGTVGHAVIGSLADRRGELFVFDGDESRVDSLRNESVAAEVRDVTDPAAITLPDRSVDMVVVAGERADRNRLAAIAADAAHPDAGLVVYLGFDATPKDRHRIDSVADRVVDPGAELLSHANSLTESGASQRLQALRQTLQGIDGRLGVFMHDNPDPDAIAAAVGLQRIAEDAGVDSQACYFGEISHQENRAFVNLLEFDLRNVETQSDAEFDAVALVDHSGPGVNDQLAPDTDVDIVIDHHPPTTDVDAGFTDIRPDTGATSTILVEYLRGYGIDVRTAVATALLYGIRVDTDDFAREITPRDFTAAAWLLPNADTDVLERIEAPSLSADTFDTIAAGIRNRQLNGSVLASCVGQITARDTLAQTADRLLAMRGVAVTFVYGYFDGTIYVSARSRRKDLDLGAVLRSAFDDLGSAGGHADMAGAQLPLGLFDAVGEDAATTLTEMIEEVVASRFFEEVHGGTSGIQQGE | failed |
| MVSSLFINPFSEDAREIVRKYGSLDTIDDTRDELLEIGRRTRGQNLADNSLLPASIAELAVKRLEWYLRRQRKDFNHRDYAYLMNPEIEEYDVLAFYILAQAAGAGFMKASREARLVVESAGAMVEDRLNVFGGEREEIMAEVLYELGSEGLRWTELADLLGSGKLKLTDLILKEGRVIIDRDEFITSFQDSIRDRSPDRLYDILVGLEVRETMISRMIMQRTEEYIGMVREMSSTVEVHPLILETAERIRETVEEIMSFTGGPVKSARPGKLVQEAFPPCIRGTLDGVRSGNRNDAIVLLLTSFISYARLYPSVFRDRTPMKVSDLDPDLRITLGEILPVIYDAADRCEPPLFEDDPQEKLNITAKLGFGVHDMPELENEGESKWYTPMSCEKIKIHLPDLCRPDKLCSSISNPLTYYNRKRWKLRSSGEKEELEHHHHHH | not failed |
| MVSVTFEPVGKKVEDEPDTILEIARRNGVLIRSDCGGKGVCGKCKVVVVDYRGSLSDITDHERKHLIEEEISKGYRLACQARVEEGRATIFIPPESRLERRKVAGLTIEKEVELNPAVRKVYAEIQPPSIEDQLPDYDRLTRALGDFSLDLETLSEMPKLLREAEWRVTATFWNGRLIDLEKGDVSDRCYGVAVDVGSSKIICHLVDLKSGETIATGYSDNPQVAYGEDIVSRITYASKSAENRKRLQTVVVETVNQIIAELCNESGVDLRHVYEVMIVGNSVMHHLFFGIEPRFIGVSPFTPAVRRGVSFPAEDVGLRINRKGYVSSLPLVAGFVGADAVANIAITGIHKAEEISMVIDIGTNTEIVIGNREKLGVCSAPSGPAFEGAHITFGMKAISGAIDSVRIERDEVIYTTIDNAKAKGLCGTGLIDLIAELYRNGIINRNGKFVKDHSRIIVDGVPKFVVAKAEETEFGKPITVSEKDINELLMAKGAIKSGWMILSERLGIEPDKIERIYLAGSFGRHINVENAKVIGLLPDIPSEKITFAGDTAVGGAKMALKSVRVRDEMEDVVSRLNYVELSVEKNFYSVFVRAIPI | not failed |
| MVSYDRHINHVRLFVDGILDSSFLTEGITKTNDSPIYIGGAPYSVDSCDFPFLLDELKIYNLSIGTDQIQSEASASLSGIEPSFIYFGCFHCDMNTAILSCPNNYHLCNKMELYIGVYNVLRKFSLDVNNIILPYSSESNLGIGICCTDI | failed |
| MVTGMFSLGRTYLFRVPEGEELLTYIKNFCKKEGIETAIINGIGTLKNPKIGYFLEEKKEYKVIPLKGSYELISLIGNVSLKDGEPFVHAHVSLGNEEGIVFGGHLVEGEVFVAEIFLQELKGEKIERKPTKYGLALWEELKLLEHHHHHH | not failed |
| MVTLLVLRMISAITRKTPVKTLSKRSKTFNETAGGEGGGGAIKLITINVHIRYSFTMITISQYFHLVDELRNCTRKVWSTYPKELIELLRDSMVTH | failed |
| MVVAVYPGTFDPLTRGHEDLVRRASSIFDTLVVGVADSRAKKPFFSLEERLKIANEVLGHYPNVKVMGFTGLLKDFVRANDARVIVRGLRAVSDFEYEFQMAGMNRYLLPDVETMFMTPSDQYQFISGTIVREIAQLGGDVSKFVFPSVEKWLTEKVAAMAQGPSA | not failed |
| MVVETIERSCEGSKRRHVNGGDIAVPCSGEECSNGDINVAPGVSAKRARVSREMTFEDIYGADALLNDDDDEDDDCDWEPVQAPMEFVKWCCVNCTMSNPGDMVHCCICGEHKESGILRHGYLASPFFKDTGLIEVEEKYGGSSSATSSTAVGFDERMLLHSEFEVKAQPHPERPDRLRAIAASLATAGVFPGRCLPINAREITKQELQMVHTSEHVDAVDTTSQLLYSYFTSDTYANEYSARAARLAAGLCADLATDIFTGRVKNGFALVRPPGHHAGVRHAMGFCLHNNAAVAALVAQAAGAKKVLIVDWDVHHGNGTQEIFEQNKSVLYISLHRHEGGNFYPGTGAADEVGSNGGEGYCVNVPWSCGGVGDKDYIFAFQHVVLPIASAFSPDFVIISAGFDAARGDPLGCCDVTPAGYSRMTQMLGDLCGGKMLVILEGGYNLRSISASATAVIKVLLGENPENELPIATTPSVAGLQTVLDVLNIQLEFWPSLAISYSKLLSELEARLIENKSEKSDEKEGCSGSDMVEMGTKEAFVQLSLGSYDFKIKVILESILPNPS | failed |
| MVVHGGAAYIRAMDHLPVDPARYGAFLVAMFVMAITPGPANLFAIATGMEKGKGAALAGVAGMNCATLIWFIGSALGLGALIIAFPQAFHLLALAGAAYLVWLGLKSLWAGWKNAESHAVAAVRGGKSAFVDGFAVQIANPKALLFFTAVLPPFLDVDRPLVPQLLMFACATIGMDLISMSAYGVGGAALSDRMNEPGFRRGFAILVGVLLITAAGLIVSRG | failed |
| MVVKASGGSSVARPQLYQTVPVSTIIQAEQQDRFLNRGELDELAVYLRSGAKRLEIATTLTRNADIIVSRAANRIFVGGSPMAFLSRPQTEEAPQFTTGARGEAIDIKEAMKLGTATYVDTRGGFLEGLRSIFSASSGGAPVGFKPINIARYGPARMEKSLRDLDWFLRYTTYAIVAGDPNILAVNTRGLREIIEAACSSDATIAALQEMRRAALSYFEKDAEAKGIVETYFDVLINEFIAPAPSDKVRQRNSTDLQGLQLPQIYFNAAERRPKFVMKPGLSAAEKNEVVKAAYRQIFERDISRAYGLGISDLESKVKNGSISMKEFIRQLAKSPLYRKNFYEPYINSRALELAFRHILGRGPSSREEVQTYFAIISKGGLPALVDALVDSKEYSDYFGEETVPYLRGLGQEAQECRNWGAQQDLFKYSAPFRKVPQFITTFAAQDQPLPDQHPYGSGNDPLEIQFGAIFPKEKKNPSARPQPFNKDTRRILIARGPGINNQVSNPGARGLTPGTLGPKVFKLDQLPSINARIGKRSIATGTDSVKFAESSTQRVIRAAYLQVFGRDVYEGQRQKVAEIKLENGEISVREFVRILAKSNLFRSLYWTPLYVTKAIEYIHRRLLGRPTYGRQEMNAYFDIASKKGLYGLVDAIIDSQEYSEAFGEDTVPYERYITPQGLALRSLRVGTIGETGVPPEKEETPRFVELGAVTELRTEPAIQFRANQGVSKRREQTKVFKLTDLNDKQNLQLVIQAAYRQVFERDVAPYIVRDEFTALESKLSNGEITLKEFIEALGCSELYQKEFYTPYPNTKVIELGTKHFLGRAPLDQAEIRRYNQILATQGLKAFVQALVSSAEYAQAFGEDTVPYRRFPTLPAANFPNTEKLHNQLTKQSDAIVVPSFAPVKPRLDNTKLPLLSRAIAEQEAKARQADPSKPRFIELGRSFRNGDGQSVEVGVGTTRRRPARIFRMTVGAPSAEVELVINAIYCQVMDVFSGQVPSQFRRPDLESRLRNGEITVREFVRTLASSEIYRNRFYTPYPNTKVIEFLFRHLLGRAPATQAEIRQYNKILADQGLKTAVETMVNSPEYSRYFGEDVVPYKRFPTLPAGNYIGSVKADADLVKQSWSSLSPSLVGIQPSHRD | failed |
| MVVLKKMIGLVVVLSVLLARDNPFEPEINSKNLQGGFNGIYDSYFKEIHVDLPTSARILKQITLTYQDIDGSIHSKVVGIDKGIDWHYPLKLSQHTLDPAAFEKRYQIQDFDFLMASNTMILRSPYKILRSFVLVNPYRIVLDTQKGPLDIYQNMDLNQKFFSHIKVGTHKDYYRITLILDGKYRYLLEEKNGAYELKLK | failed |
| MVVNKRLILILLFILNTAKSDELSWKGNDFTLYARQMPLAEVLHLLSENYDTAITISPLITATFSGKIPPGPPVDILNNLAAQYDLLTWFDGSMLYVYPASLLKHQVITFNILSTGRFIHYLRSQNILSSPGCEVKEITGTKAVEVSGVPSCLTRISQLASVLDNALIKRKDSAVSVSIYTLKYATAMDTQYQYRDQSVVVPGVVSVLREMSKTSVPTSSTNNGSPATQALPMFAADPRQNAVIVRDYAANMAGYRKLITELDQRQQMIEISVKIIDVNAGDINQLGIDWGTAVSLGGKKIAFNTGLNDGGASGFSTVISDTSNFMVRLNALEKSSQAYVLSQPSVVTLNNIQAVLDKNITFYTKLQGEKVAKLESITTGSLLRVTPRLLNDNGTQKIMLNLNIQDGQQSDTQSETDPLPEVQNSEIASQATLLAGQSLLLGGFKQGKQIHSQNKIPLLGDIPVVGHLFRNDTTQVHSVIRLFLIKASVVNNGISHGLEHHHHHH | not failed |
| MVVRQIRALLSSLLWAWRRARLQGRSAFQLVRACLREGAKGPRHFARRMAAYASGGSASPPPVSLDAYESWHSALPQLEVPADSGMISVIIPVCNTPELFLREAIESVRTQTYQNWEICIHDDASNEPHVGRILAEFKKRIPNLRVTRSETRSGIAATTNAALASARGRWVTFLDHDDVLDRNALAAVVDCHIKTGSAVVYTDHDMLGEDGRLRNPYFKPDWNYDLFLAQMYLGHLVSFEHDLIKRVGLTRSECDGSQDYDLVLRCVAAGAKVGHVPRVLYHWRMHAGSTAANADSKPYAHDSGKRAIQYHVDAVYPGAQVEDGPHLFCYDVRYPYAQHAPKASIIIPTRDGLDLLRPCIESIQGRTDYTNFEIIVVDNGSKDPATLEWLDAMSNEPWFRVLQADVPFNWSALNNLAAASAEGEVLVFLNNDTEVASADWLQRLVENALRPDVGACGALLLYADGSIQHAGVVVGMGGWADHVFKGQQPIHHQHLFVSPILRREVLAVTGACVAISRANFDAIGGFDESFVVCGSDVELCLRAMANGKRTVYVPEAILIHHESKTRDPRVIPESDFVRSAQAYSPYRESGDPFYSPNLDYMSPSPALRGAQADA | failed |
| MVVSKMNKDAQMRAAINQKLIETGERERLKELLRAKLIECGWKDQLKAHCKEVIKEKGLEHVTVDDLVAEITPKGRALVPDSVKKELLQRIRTFLAQHASL | failed |
